Assay [1] deals with TrkB signaling (pTrkB, pAkt, pmTOR). The experiment in a line: Immunoblotting of TrkB/Akt/mTOR phosphorylation in primary neurons transfected with MDGA2, ΔMAM or V930I. Particulars: Mdga2-/- neurons, n = 6, Fig 7F. The class given is cell-based, mouse. The method, then:
Fig 3 MDGA2 interacts with TrkB and suppresses TrkB activity. (A) Primary hippocampal neurons derived from Mdga2^ +/− (Het) mice and their wild-type (WT) littermates at DIV 7 were treated with different doses of BDNF for 30 min. Equal amounts of protein lysates were subjected to immunoprecipitation (IP) with an anti-TrkB antibody, followed by immunoblotting with an anti-phosphotyrosine (pTyr) antibody or the anti-TrkB antibody. The pTyr levels were quantified by densitometry, normalized to total TrkB levels, and then compared to those of WT controls. n = 3 per group. (B) WT mouse brain lysates were subjected to IP with an anti-MDGA2 antibody and a control IgG, and immunoblotted (IB) for the components indicated. mBDNF, mature BDNF; ImBDNF, immature BDNF. (C) Hippocampal neurons from WT mice at DIV 7 were immunostained with antibodies against MDGA2 (red) and TrkB (green), and then counter-stained with DAPI (blue). Images were acquired by a confocal microscope. Scale bar: 10 μm. (D) Surface plasmon resonance (SPR) analysis of the binding between recombinant MDGA2 protein and recombinant TrkB protein. TrkB was immobilized on a Biacore CM5 chip and tested for its binding with MDGA2 at the concentrations indicated. (E) Computer simulation of the binding mode of TrkB and MDGA2. The predicted binding domain of TrkB (the d5 domain) is highlighted by a red square and labeled in brown. The predicted binding domain of MDGA2 (the MAM domain) is highlighted by a red square and labeled in yellow. (F) HEK293T cells were co-transfected with TrkB-Flag and GFP-tagged full-length MDGA2 (MDGA2-GFP) or an MDGA2 deletion fragment lacking the entire MAM domain (ΔMAM-GFP). Cell lysates were subjected to IP with control IgG and antibodies against Flag or GFP, and immunoblotted for the components indicated. […] The scheme of MDGA2-ΔMAM is also shown. (G) HeLa cells were co-transfected with TrkB that is tagged with the N-terminal Venus fragment (TrkB-VN) and full-length MDGA2 or MDGA2-ΔMAM that are tagged with the C-terminal Venus fragment (MDGA2-VC or ΔMAM-VC) for 24 h. After immunostaining with antibodies against MDGA2/MDGA2-ΔMAM (pink) and TrkB (red), cells were observed by confocal microscopy. Venus signal (green) indicates the interaction between MDGA2 and TrkB. Schematic diagrams depicting the BiFC assay are also shown. Scale bars: 10 μm. (H, I) Equal amounts of protein lysates from primary neurons derived from Het, KO, and their WT littermate mice (H), and from WT primary neurons transfected with GFP control, MDGA2-GFP or ΔMAM-GFP (I) were subjected to IP with IgG and an anti-BDNF antibody, and then immunoblotted for the components indicated. Immunoprecipitated TrkB levels were quantified by densitometry, normalized to input levels, and compared to respective controls (set to one arbitrary units). n = 3 per group. (J) Neurons derived from KO mice were transfected with GFP control (Ctrl), MDGA2-GFP, or MDGA2-ΔMAM-GFP, and neurons derived from their WT littermates were transfected with GFP control (Ctrl). Equal amounts of protein lysates were subjected to immunoblotting for the proteins indicated. Levels of phosphorylated proteins were quantified by densitometry, normalized to respective total protein levels and compared to controls (set to one arbitrary units). n = 6 per group. Data represent mean ± SEM. P-values were determined by two-tailed unpaired Student t-test in (A) and one-way ANOVA with Tukey’s multiple comparisons test in (H, I, J). *p < 0.05, **p < 0.01, ***p < 0.001, ns: not significant. The data underlying this figure can be found in S1 Data, specifically in the sheet labeled “Figure 3”.
Fig 7 The autism spectrum disorder (ASD)-associated MDGA2 V930I mutation impairs the MDGA2-TrkB interaction and MDGA2’s inhibitory effect on the tyrosine kinase B (TrkB) signaling. (A) Schematic depiction of the WT human MDGA2 and its V930I mutation constructs that are tagged with GFP. […]
Background: A western blot detects proteins with antibodies after separation by electrophoresis.

The subject of a further assay is HeLa cells. The experiment in a line: Cell surface biotinylation of MDGA2 or V930I in transfected HeLa cells. The class given is cell-based. Particulars: n = 4, Fig 7D. The source says: (§1) Fig 7 The autism spectrum disorder (ASD)-associated MDGA2 V930I mutation impairs the MDGA2-TrkB interaction and MDGA2’s inhibitory effect on the tyrosine kinase B (TrkB) signaling. (A) Schematic depiction of the WT human MDGA2 and its V930I mutation constructs that are tagged with GFP. (B, C) HeLa cells (B) and mouse primary neurons (C) transfected with MDGA2 (green) or V930I (green) were immunostained with an antibody against the plasma membrane protein ATP1A1 (red) and then observed by confocal microscopy. Scale bars = 10 μm. (D) Cell surface expression of WT MDGA2 or V930I in transfected HeLa cells was determined by surface biotinylation assays. Biotinylated (cell surface) protein levels were quantified by densitometry and normalized to total protein levels for comparison (WT MDGA2 levels were set to one arbitrary unit). n = 4 experimental replicates. (E) Mouse primary neurons were transfected with MDGA2, V930I, or ΔMAM. […] Immunoprecipitated protein levels were quantified by densitometry, normalized to respective inputs, and compared to those transfected with MDGA2 (set to one arbitrary units). n = 4 experimental replicates. […] Levels of phosphorylated proteins were quantified by densitometry, normalized to respective total protein levels and compared to controls (set to one arbitrary units). n = 6 experimental replicates. […]

Another assay relates to TrkB. The experiment in a line: Co-IP of MDGA2, V930I or ΔMAM with TrkB in mouse primary neurons. The assay is classed as binding. Particulars: n = 4, Fig 7E.
Text: as §1

Assay [2] relates to cell membrane localization in HeLa cells and mouse primary neurons. The experiment in a line: Immunostaining of membrane localization of MDGA2, ΔMAM or V930I in transfected cells. The assay is classed as cell-based. The conditions noted are these: HeLa cells and mouse primary neurons, Fig 7B, 7C.
Text: as §1

B1: MDGA2-V930I: MDGA2 with ASD-associated missense mutation V930I, GFP-tagged (protein)
chain: PPTVRIVHSGLACNIEEERYSERVYTIREGETLELTCLVTGHPRPQIRWTKTAGSASDRFQDSSVFNETLRITNIQRHQGGRYYCKAENGLGSPAIKSIRVDVYYLDDPVVTVHQSIGEAKEQFYYERTVFLRCVANSNPPVRYSWRRGQEVLLQGSDKGVEIYEPFFTQGETKILKLKNLRPQDYANYSCIASVRNVCNIPDKMVSFRLSNKTASPSIKLLVDDPIVVNPGEAITLVCVTTGGEPAPSLTWVRSFGTLPEKTVLNGGTLTIPAITSDDAGTYSCIANNNVGNPAKKSTNIIVRALKKGRFWITPDPYHKDDNIQIGREVKISCQVEAVPSEELTFSWFKNGRPLRSSERMVITQTDPDVSPGTTNLDIIDLKFTDFGTYTCVASLKGGGISDISIDVNISSSTVPPNLTVPQEKSPLVTREGDTIELQCQVTGKPKPIILWSRADKEVAMPDGSMQMESYDGTLRIVNVSREMSGMYRCQTSQYNGFNVKPREALVQLIVQYPPAVEPAFLEIRQGQDRSVTMSCRVLRAYPIRVLTYEWRLGNKLLRTGQFDSQEYTEYAVKSLSNENYGVYNCSIINEAGAGRCSFLVTGKAYAPEFYYDTYNPVWQNRHRVYSYSLQWTQMNPDAVDRIVAYRLGIRQAGQQRWWEQEIKINGNIQKGELITYNLTELIKPEAYEVRLTPLTKFGEGDSTIRVIKYSAPVNPHLREFHCGFEDGNICLFTQDDTDNFDWTKQSTATRNTKYTPNTGPNADRSGSKEGFYMYIETSRPRLEGEKARLLSPVFSIAPKNPYGPTNTAYCFSFFYHMYGQHIGVLNVYLRLKGQTTIENPLWSSSGNKGQRWNEAHVNIYPITSFQLIFEGIRGPGIEGDIAIDDVSIAEGECAKQDLATKNSID
modifications: left off: GFP, end not stated, kept
notes: MDGA2 with ASD-associated missense mutation V930I, GFP-tagged
In the case of B1, the “aberrant activation of TrkB/Akt signaling upon re-expression” value in assay [1] is “did not inhibit the aberrant activation of the TrkB/Akt signaling as WT MDGA2 did”. Also, the “cell surface levels (biotinylation)” value in the assay on HeLa cells was “significantly lower than those of WT MDGA2”. Besides, the “interaction with TrkB (IP) vs WT MDGA2” value in the assay on TrkB is listed as “significantly decreased compared to that of WT MDGA2”. The “cell surface distribution (immunostaining)” value in assay [2] is recorded as “cell surface distribution was much less than that of WT MDGA2”.

The values are drawn from paper PMC11960969, “Mdga2 deficiency leads to an aberrant activation of BDNF/TrkB signaling that underlies autism-relevant synaptic and behavioral changes in mice” (PLOS Biology, 2025).
